Data from US20240116985A1, “STAPLED PEPTIDES AND METHODS THEREOF” (priority 2020, published 2024).
Starred links: 1 amine or outer side, 2 acyl side, 3 side chain; linkers in the order of their positions; H or OH if unused. Positions of bridges follow the written chain, without caps; N, C: chain ends. Non-standard residues stand in square brackets, D forms with d. Primed or numbered codes have the meaning given here. PyrS2″ = (S)-3-amino-1-((pent-4-en-1-yloxy)carbonyl)pyrrolidine-3-carboxylic acid (stapling residue), C=CCCCOC(=O)N1CC[C@@](N[*:1])(C(=O)[*:2])C1; B5(24) = 2-amino-2-(pent-4-en-1-yl)hept-6-enoic acid, 2,2-bis(4-pentenyl)glycine (stitching residue), C=CCCCC(CCCC=C)(N[*:1])C(=O)[*:2]; B5(4) = 2,2-bis(4-pentenyl)glycine = 2-amino-2-(pent-4-en-1-yl)hept-6-enoic acid (stitching residue), C=CCCCC(CCCC=C)(N[*:1])C(=O)[*:2]; B5(5) = 2,2-bis(4-pentenyl)glycine, 2-amino-2-(pent-4-en-1-yl)hept-6-enoic acid (stitching residue), C=CCCCC(CCCC=C)(N[*:1])C(=O)[*:2]; B5(12) = 2-amino-2-(pent-4-en-1-yl)hept-6-enoic acid (two olefin side chains), C=CCCCC(CCCC=C)(N[*:1])C(=O)[*:2]; B5(19) = 2-amino-2-(pent-4-en-1-yl)hept-6-enoic acid (bis(4-pentenyl)glycine), C=CCCCC(CCCC=C)(N[*:1])C(=O)[*:2]; B5(3) = 2,2-bis(4-pentenyl)glycine (stitching residue), C=CCCCC(CCCC=C)(N[*:1])C(=O)[*:2]; Phe(3-CF3) = N[C@@H](Cc1cccc(C(F)(F)F)c1)C(=O)O; Phe(4-CF3) = N[C@@H](Cc1ccc(C(F)(F)F)cc1)C(=O)O; Ala(morpholin-4-yl) = N[C@@H](CN1CCOCC1)C(=O)O; Phe(3-CONH2) = NC(=O)c1cccc(C[C@H](N)C(=O)O)c1; Phe(3-COOH) = N[C@@H](Cc1cccc(C(=O)O)c1)C(=O)O; Phe(3-Cl) = N[C@@H](Cc1cccc(Cl)c1)C(=O)O; Phe(3-OMe) = COc1cccc(C[C@H](N)C(=O)O)c1; Phe(2-Cl) = N[C@@H](Cc1ccccc1Cl)C(=O)O; 1Nal = N[C@@H](Cc1cccc2ccccc12)C(=O)O; 2Nal = N[C@@H](Cc1ccc2ccccc2c1)C(=O)O; Phe(2-F) = N[C@@H](Cc1ccccc1F)C(=O)O; Bta = N[C@@H](Cc1csc2ccccc12)C(=O)O; Lys(iPr) = CC(C)NCCCC[C@H](N)C(=O)O; αAllylPro = C=CC[C@@]1(C(=O)O)CCCN1; tBuAla = CC(C)(C)C[C@H](N)C(=O)O; 3Pal = N[C@@H](Cc1cccnc1)C(=O)O; 3Thi = N[C@@H](Cc1ccsc1)C(=O)O; Cha = N[C@@H](CC1CCCCC1)C(=O)O; PyrS2(4) = not defined here; hSer = N[C@@H](CCO)C(=O)O; Nle = CCCC[C@H](N)C(=O)O; Aib = CC(C)(N)C(=O)O

B1: I-1926 (peptide)
peptide: Ac-[αAllylPro]N[Cha][B5(19)]DQ[Lys(iPr)]A[Phe(3-OMe)]N[PyrS2″]F[Bta][hSer]-NH2
modifications: staple 1-4, 4-11
B2: I-1120 (peptide)
peptide: Ac-[αAllylPro]D[Cha][B5(4)]DDAA[Phe(4-CF3)]S[PyrS2″][Phe(2-Cl)][Bta]Q-NH2
modifications: staple 1-4, 4-11
B3: I-1918 (peptide)
peptide: Ac-[αAllylPro]D[tBuAla][B5(4)]D[Phe(3-COOH)]QAFL[PyrS2(4)][3Thi][Bta]A-NH2
modifications: staple 1-4, 4-11; not fully specified; printed as Ac-PL3-Asp-Npg-B5-Asp-3COOHF-Gln-Ala-Phe-Leu-PyrS2-3Thi-BztA-Ala-NH2; reading uncertain
B4: I-1125 (peptide)
peptide: Ac-[αAllylPro]D[Cha][B5(3)]DDAA[Phe(3-CF3)]S[PyrS2″]F[Bta]Q-NH2
modifications: staple 1-4, 4-11
B5: I-1117 (peptide)
peptide: Ac-[αAllylPro]D[2Nal][B5(4)]DDAAFL[PyrS2″][Phe(2-Cl)][Bta]S-NH2
modifications: staple 1-4, 4-11
B6: I-1136 (peptide)
peptide: Ac-[αAllylPro]D[Cha][B5(24)]DDAAFS[PyrS2″][Phe(2-Cl)][Bta][dT]-NH2
modifications: staple 1-4, 4-11
B7: I-1124 (peptide)
peptide: Ac-[αAllylPro]D[Cha][B5(3)]DDAA[Phe(3-OMe)]S[PyrS2″]F[Bta]Q-NH2
modifications: staple 1-4, 4-11
B8: I-1925 (peptide)
peptide: Ac-[αAllylPro]N[Cha][B5(19)]DQ[Lys(iPr)]A[Phe(3-CONH2)]N[PyrS2″]F[Bta][hSer]-NH2
modifications: staple 1-4, 4-11
B9: I-1027 (peptide)
peptide: Ac-[αAllylPro]F[tBuAla][B5(5)]DDAADN[PyrS2″][3Thi][Bta]Q-OH
modifications: staple 1-4, 4-11
B10: I-1039 (peptide)
peptide: Ac-[αAllylPro]D[tBuAla][B5(5)]DEAAFL[PyrS2″][Phe(2-Cl)][Bta][dT]-NH2
modifications: staple 1-4, 4-11
B11: I-1916 (peptide)
peptide: Ac-[αAllylPro]D[tBuAla][B5(4)]D[Phe(3-COOH)]HAFL[PyrS2(4)][3Thi][Bta]A-NH2
modifications: staple 1-4, 4-11; not fully specified; printed as Ac-PL3-Asp-Npg-B5-Asp-3COOHF-His-Ala-Phe-Leu-PyrS2-3Thi-BztA-Ala-NH2; reading uncertain
B12: I-1131 (peptide)
peptide: Ac-[αAllylPro]D[tBuAla][B5(24)]DD[Lys(iPr)]AFN[PyrS2″][Phe(2-Cl)][Bta]Q-NH2
modifications: staple 1-4, 4-11
B13: I-1116 (peptide)
peptide: Ac-[αAllylPro]D[1Nal][B5(4)]DDAAFL[PyrS2″][Phe(2-Cl)][Bta]S-NH2
modifications: staple 1-4, 4-11
B14: I-1126 (peptide)
peptide: Ac-[αAllylPro]D[Cha][B5(4)]DDAA[Phe(4-CF3)]S[PyrS2″]F[Bta]Q-NH2
modifications: staple 1-4, 4-11
B15: I-1038 (peptide)
peptide: Ac-[αAllylPro]D[tBuAla][B5(5)]DEAAFF[PyrS2″][Phe(2-Cl)][Bta][dT]-NH2
modifications: staple 1-4, 4-11
B16: I-1118 (peptide)
peptide: Ac-[αAllylPro]D[Cha][B5(4)]DDAA[Phe(3-OMe)]S[PyrS2″][Phe(2-Cl)][Bta]Q-NH2
modifications: staple 1-4, 4-11
B17: I-1133 (peptide)
peptide: Ac-[αAllylPro]D[tBuAla][B5(4)]DDAAFN[PyrS2″][Phe(2-Cl)][Bta][Ala(morpholin-4-yl)]-NH2
modifications: staple 1-4, 4-11; also: earlier eluting staple isomer
B18: I-1132 (peptide)
peptide: Ac-[αAllylPro]D[tBuAla][B5(24)]DDA[Lys(iPr)]FN[PyrS2″][Phe(2-Cl)][Bta]Q-NH2
modifications: staple 1-4, 4-11
B19: I-2355 (peptide)
peptide: Ac-[αAllylPro]N[Cha][B5(4)]DQ[hSer]AFL[PyrS2″]F[Bta]Q-NH2
modifications: staple 1-4, 4-11; also: later eluting isomer composition (HPLC), configuration not given here
B20: I-1130 (peptide)
peptide: Ac-[αAllylPro]D[tBuAla][B5(24)]DDAAFN[PyrS2″][Phe(2-Cl)][Bta][Lys(iPr)]-NH2
modifications: staple 1-4, 4-11
B21: I-1922 (peptide)
peptide: Ac-[αAllylPro]N[Cha][B5(12)]DQ[Lys(iPr)]AF[hSer][PyrS2(4)]F[Bta][hSer]-NH2
modifications: staple 1-4, 4-11; not fully specified; printed as Ac-PL3-Asn-Cha-B5-Asp-Gln-iPrLys-Ala-Phe-Hse-PyrS2-Phe-BztA-Hse-NH2; reading uncertain
B22: I-1927 (peptide)
peptide: Ac-[αAllylPro]N[Cha][B5(19)]DQ[Lys(iPr)]AFN[PyrS2″][3Pal][Bta][hSer]-NH2
modifications: staple 1-4, 4-11
B23: I-1024 (peptide)
peptide: Ac-[αAllylPro]D[tBuAla][B5(5)]DNAAFT[PyrS2″][Phe(2-F)][Bta]S-NH2
modifications: staple 1-4, 4-11
B24: I-1913 (peptide)
peptide: Ac-[αAllylPro]D[tBuAla][B5(12)]D[Phe(3-COOH)][Nle]AFL[PyrS2(4)][3Thi][Bta]F-NH2
modifications: staple 1-4, 4-11; not fully specified; printed as Ac-PL3-Asp-Npg-B5-Asp-3COOHF-nLeu-Ala-Phe-Leu-PyrS2-3Thi-BztA-Phe-NH2; reading uncertain
B25: I-1924 (peptide)
peptide: Ac-[αAllylPro]N[Cha][B5(12)]DQ[Lys(iPr)]A[Phe(3-Cl)]N[PyrS2(4)]F[Bta][hSer]-NH2
modifications: staple 1-4, 4-11; not fully specified; printed as Ac-PL3-Asn-Cha-B5-Asp-Gln-iPrLys-Ala-3C1F-Asn-PyrS2-Phe-BztA-Hse-NH2; reading uncertain
B26: I-1135 (peptide)
peptide: Ac-[αAllylPro]D[Cha][B5(4)]DDAAFS[PyrS2″][Phe(2-Cl)][Bta]T-NH2
modifications: staple 1-4, 4-11
B27: I-1923 (peptide)
peptide: Ac-[αAllylPro]N[Cha][B5(12)]DQ[Lys(iPr)]A[3Pal]N[PyrS2(4)]F[Bta][hSer]-NH2
modifications: staple 1-4, 4-11; not fully specified; printed as Ac-PL3-Asn-Cha-B5-Asp-Gln-iPrLys-Ala-3PyrA-Asn-PyrS2-Phe-BztA-Hse-NH2; reading uncertain
B28: I-1119 (peptide)
peptide: Ac-[αAllylPro]D[Cha][B5(4)]DDAA[Phe(3-CF3)]S[PyrS2″][Phe(2-Cl)][Bta]Q-NH2
modifications: staple 1-4, 4-11
B29: I-1134 (peptide)
peptide: Ac-[αAllylPro]D[tBuAla][B5(4)]DDAAFN[PyrS2″][Phe(2-Cl)][Bta][Ala(morpholin-4-yl)]-NH2
modifications: staple 1-4, 4-11; also: later eluting staple isomer
B30: I-1914 (peptide)
peptide: Ac-[αAllylPro]D[tBuAla][B5(12)]D[Phe(3-COOH)][Aib]AFL[PyrS2(4)][3Thi][Bta]F-NH2
modifications: staple 1-4, 4-11; not fully specified; printed as Ac-PL3-Asp-Npg-B5-Asp-3COOHF-Aib-Ala-Phe-Leu-PyrS2-3Thi-BztA-Phe-NH2; reading uncertain

Legend:
[1] = target: full-length beta-Catenin (Uniprot ID P35222) (Homo sapiens (Human)) (UniProt P35222); test: fluorescence polarization competition; 10 nM full-length beta-catenin with 10 nM 5FAM-labeled TCF4 residues 10-53 probe (competitor displaced)
Target sequence in this assay (P35222 2-781 limits assumed): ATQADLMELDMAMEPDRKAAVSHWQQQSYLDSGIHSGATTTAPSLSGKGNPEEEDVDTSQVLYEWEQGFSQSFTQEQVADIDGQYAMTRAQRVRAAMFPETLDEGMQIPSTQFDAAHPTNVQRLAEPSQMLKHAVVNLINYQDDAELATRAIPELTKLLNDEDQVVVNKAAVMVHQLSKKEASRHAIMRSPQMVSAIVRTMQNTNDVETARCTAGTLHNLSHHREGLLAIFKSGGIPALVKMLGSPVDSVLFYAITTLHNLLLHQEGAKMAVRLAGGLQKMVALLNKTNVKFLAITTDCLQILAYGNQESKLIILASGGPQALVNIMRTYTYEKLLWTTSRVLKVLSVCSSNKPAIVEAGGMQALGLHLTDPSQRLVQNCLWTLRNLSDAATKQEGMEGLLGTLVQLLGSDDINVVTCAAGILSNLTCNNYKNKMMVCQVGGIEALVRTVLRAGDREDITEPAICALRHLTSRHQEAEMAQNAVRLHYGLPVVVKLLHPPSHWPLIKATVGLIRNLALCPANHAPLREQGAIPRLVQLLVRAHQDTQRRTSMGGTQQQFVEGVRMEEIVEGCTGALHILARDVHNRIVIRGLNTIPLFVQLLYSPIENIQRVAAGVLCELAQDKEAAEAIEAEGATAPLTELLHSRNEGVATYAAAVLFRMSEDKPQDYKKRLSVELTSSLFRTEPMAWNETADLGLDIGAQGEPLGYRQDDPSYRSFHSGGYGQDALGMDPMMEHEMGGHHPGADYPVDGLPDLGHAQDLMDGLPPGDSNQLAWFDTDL

[2] = target: full-length beta-Catenin (Uniprot ID P35222) (Homo sapiens (Human)) (UniProt P35222); test: fluorescence polarization competition, 5FAM-TCF4 10-53 probe on full-length beta-catenin
Target sequence in this assay (P35222 2-781 limits assumed): as above

[3] = target: full-length beta-Catenin (Uniprot ID P35222) (Homo sapiens (Human)) (UniProt P35222); test: fluorescence polarization competition, full-length beta-catenin, competitor 5FAM-TCF4 10-53
Target sequence in this assay (P35222 whole entry, the tested form may be a part): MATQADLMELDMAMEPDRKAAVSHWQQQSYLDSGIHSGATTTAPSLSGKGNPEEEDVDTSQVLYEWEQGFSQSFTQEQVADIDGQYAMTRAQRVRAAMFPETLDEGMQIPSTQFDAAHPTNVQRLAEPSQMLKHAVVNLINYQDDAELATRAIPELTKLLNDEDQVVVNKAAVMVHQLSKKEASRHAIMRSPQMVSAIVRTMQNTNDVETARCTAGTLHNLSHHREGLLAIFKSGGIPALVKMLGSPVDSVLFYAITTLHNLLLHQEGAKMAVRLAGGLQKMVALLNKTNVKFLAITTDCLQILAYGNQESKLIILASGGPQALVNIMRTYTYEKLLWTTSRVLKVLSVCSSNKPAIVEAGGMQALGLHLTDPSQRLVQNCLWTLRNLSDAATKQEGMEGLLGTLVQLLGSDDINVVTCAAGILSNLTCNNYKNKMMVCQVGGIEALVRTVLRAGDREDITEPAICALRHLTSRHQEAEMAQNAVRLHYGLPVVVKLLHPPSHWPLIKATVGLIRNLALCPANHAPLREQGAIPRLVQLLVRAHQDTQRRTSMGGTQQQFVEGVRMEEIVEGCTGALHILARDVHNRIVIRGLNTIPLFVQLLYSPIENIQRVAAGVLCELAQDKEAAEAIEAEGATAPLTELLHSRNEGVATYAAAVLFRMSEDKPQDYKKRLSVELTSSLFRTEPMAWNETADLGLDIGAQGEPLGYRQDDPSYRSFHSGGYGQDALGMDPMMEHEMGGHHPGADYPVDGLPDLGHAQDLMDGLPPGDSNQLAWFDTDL

[4] = target: full-length beta-Catenin (Uniprot ID P35222) (Homo sapiens (Human)) (UniProt P35222); test: fluorescence polarization competition; 10 nM full-length beta-catenin + 10 nM 5FAM-TCF4 10-53 as competitor probe
Target sequence in this assay (P35222 2-781 limits assumed): as the sequence (P35222 2-781 limits assumed) above

[5] = target: full-length beta-Catenin (Uniprot ID P35222) (Homo sapiens (Human)) (UniProt P35222); test: fluorescence polarization competition; full-length beta-catenin, competitor 5FAM-TCF4 10-53
Target sequence in this assay (P35222 whole entry, the tested form may be a part): as the sequence (P35222 whole entry, the tested form may be a part) above

[6] = target: full-length beta-Catenin (Uniprot ID P35222) (Homo sapiens (Human)) (UniProt P35222); test: fluorescence polarization competition; 10 nM full-length beta-catenin + 10 nM 5FAM-TCF4(10-53) probe; peptide titrated 10 uM to 5 nM
Target sequence in this assay (P35222 2-781 limits assumed): as the sequence (P35222 2-781 limits assumed) above

Binder | IC50 [1] [nM] | EC50 [2] [nM] | IC50 [3] [nM] | also measured
B1 | 417 |  |  | 
B2 |  | 85 | 85 | 
B3 | 5 |  |  | 
B4 |  | 16 | 16 | 
B5 |  | 55 | 55 | 
B6 |  | 16 | 16 | 
B7 |  | 12 | 12 | 
B8 | 475 |  |  | 
B9 |  |  |  | EC50 [4]: 1140 nM
B10 |  |  |  | IC50 [5]: 57 nM; EC50 [4]: 57 nM
B11 | 8 |  |  | 
B12 |  | 7 | 7 | 
B13 |  | 40 | 40 | 
B14 |  | 32 | 32 | 
B15 |  |  |  | IC50 [5]: 101 nM; EC50 [4]: 101 nM
B16 |  | 24 | 24 | 
B17 |  | 5 | 5 | 
B18 |  | 21 | 21 | 
B19 |  |  |  | IC50 [6]: 417 nM
B20 |  | 6 | 6 | 
B21 | 457 |  |  | 
B22 | 5140 |  |  | 
B23 |  |  |  | IC50 [5]: 43 nM; EC50 [4]: 43 nM
B24 | 119 |  |  | 
B25 | 1610 |  |  | 
B26 |  | 20 | 20 | 
B27 | 10000 |  |  | 
B28 |  | 26 | 26 | 
B29 |  | 6 | 6 | 
B30 | 52 |  |  | 
